A short description of this data set: soluble on expression in E. coli; label from the status in PepcDB or PDB records.
Turning to “MSLQTQLVHELVENQPTKLLIYVKNIRTIRTKKGEQMAFVDGDDTTGSISLTLFPTVFRQLRQSVEKGQVYYVEGKVERSTYNQELQILVQRIEKAQQVETSISDETCFIRITKDVEQTDVFQKMKEVLSRHAGHIPVIVYFEKTGKKIVLNEENWVAHTSASQQQLAYVLGEQNVIFKEGHHHHHH”, the “soluble on expression in E. coli” value is on record as “soluble”.
“PADLSGTWTLLSSDNFEGYMLALGIDFATRKIAKLLKPQKVIEQNGDSFTIHTNSSLRNYFVKFKVGEEFDEDNRGLDNRKCKSLVIWDNDRLTCIQKGEKKNRGWTHWIEGDKLHLEMFCEGQVCKQTFQRA”: the “soluble on expression in E. coli” value is “soluble”.
As to “MVAPGKKFTLRHIFKNVTKWKTGEIFYSPDEEHFNVPWQMCIHRENGNMCVILCCLKVEEDRVPWKINFEYQLKIVNISGMSIVKAGNKICTEKRRFVRRQFISRNTLKSGYLVDDIITVEATVKITKVSKKQLRSFDKSNKKFSDVILAIEDEKFYVLKKFLASHSTYFKTLLLGKFEEAERQEVKLQDIDSTDFQNLMEVLYGESAIDDGTIKGILELADMYDMPFPIRKCEEFLIDSSEKSIKEKLKIAKQYKMENLKNSCLSKVNTVRDIKAAMTGDPTEMDLSVLAALLGKSLALH”, the “soluble on expression in E. coli” value is listed as “not soluble”.
Take “MSSPTSLEEDGDIKLKTRFQGQVVVLYARPPLILDDFFALLKDACKQHKKQDITVKWIDEDGDPISIDSQMELDEAVRCLNSSQEAELNIHVFVGKPELPGLPCQGEDKTVYRRGARRWKKIYLYNGHRFQAKRLNRRIQCFICHDYIWGIGRQGFRCVDCRLCVHKKCHRHVRTHCGQALQGPNIIPMAPASGSLKGARSNTSSSTTRSGGGIDNGAFHEHEIESPGSTSHDASRAMNGNGSSKWAVSLNDFRLLTVIGRGSYAKVVQAEHVSTRQIYAIKIIKKEMFNEDEDIDWVQTEKSVFEAASNYPFLVGLHSCFQTESRLFFVIEFVPGGDLMFHMQQQRKLPEEHARFYSGEIILALHFLHSRGIIYRDLKLDNVLIDAEGHIKLTDYGMCKENIKDGDLTSTFCGTPNYIAPEILRGDEYGFSVDWWALGVLMFEMMAGRSPFDIVGMQNSEENTEDYLFQIILERQIRIPRSLSVRASGILKGFLNKDPTERLGCKLDINEGLRDMKEHQFFRGFIDWEALEQKAVAPPYHPAVESDRDLTHFDHQFTDELPQLSPDNPDVIARIDQSEFDGFEYVNPLQMSREDSV”: the “soluble on expression in E. coli” value is “not soluble”.
Turning to “MTQLNFEENLLTKVAWYYYKDQLTQQEIASLLHISRNKVVRLLDKARSEGIVTFHVKGTGLHCLSIERDLMKKFHLKDAFIIPTPVNNYHASLGKAAAQYLETHLQQGDLLGIGWGETISKMLENIHFESSINLSIVTLTGGVNHYLPRKQNYLHYMQGELHIIPTPFLASTTEMAQSILSEPSVKDMLQVASLAHTAVVGIGGLSQDATIVKEEKLTLREMTYIRSQNGAGDILGQFYNTNGDLLELSHHNRLIGTPLSILRNMKHVVGVAGGTEKIDAICGALKGKFIHSLITDEETALSLLRKDGDC”, the “soluble on expression in E. coli” value is reported as “not soluble”.
Consider “MKNWLAYINSLHSREIDLGLSRITSLAEKLSLNNFACPVVTVAGTNGKGSVVKSLESIYLAAGYKVAAYTSPHLLQFNERLRLNGEPATDELFIEAFKFIEDNRNHQPLSFFEFTTLAIFYICKKQNLDILLLEVGLGGRLDAVNIVEPDVAVITTIDIDHTDWLGEDRESIGREKAGIIRRHKPVIGGDPNLPNSVYEQVHLLEAPFYQLEKDFFAVSTKENWQWQGPTQDYQGLPLPSLKIENIATSLMVIHCLQSQLPVSQHSLIAGIKNAVLPGRFEWIQTPAPIVFDVAHNPQATAYLSEQLRKTDHAGRTLGVVGMLRDKDIPGALKPMLPCIDQWYAGTLSESRGATSANLQNVLSELQVENCYNFDSVADAFKKAVEDCRPQDRIVVFGSFYTVAMAKEVLLGGENGN”, for which the “soluble on expression in E. coli” value is listed as “soluble”.
Turning to “MREVLLEKLRTEKFLQIALDFIDINDAIKVVNEVKDLENEIIEIGTPLLKSFGIEGIRKIKSLVPDKIIVADTKTADAGDVEVEIAKLGGAHIMTVLGIMDDSTIYSAVKKARELDILVQADLINVKNVYERSKELKQLGVDIIGFHVGLDVQKSRGISVADLKNEIRKVSELNLIISIAGGLNKDRILELIDLPVSIYVVGGAITRSKEPKNVSKEIVNILKGR”, the “soluble on expression in E. coli” value is “not soluble”.

These data come from the DeepSol protein solubility set.
